The test system of this data set is Escherichia coli TOP10. In words: shrunken log2 fold change of peptide-encoding DNA abundance (4.5 h post-induction vs induction); higher = less antimicrobial activity (less host growth inhibition). To be noted: time post-induction: 4.5 h; library: site-saturation at positions 5, 18, 19, 20.
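Further: peptides expressed intracellularly from a pBAD plasmid library in pooled LB shake-flask culture, induced with 0.3% L-arabinose, DNA abundance read by NGS, three biological replicates, DESeq2 with apeglm shrinkage.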

Consider RRIRIRPPRLPRPRPRPQMNPRP, for which the “shrunken log2 fold change” value was -0.887.

As to RRIRWRPPRLPRPRPRPIIQPRP, the “shrunken log2 fold change” value is -0.151. As to RRIRSRPPRLPRPRPRPERCPRP, the “shrunken log2 fold change” value came to 0.0123. With RRIRVRPPRLPRPRPRPEPSPRP the figure was 0.0778. Take RRIRGRPPRLPRPRPRPKDSPRP: the “shrunken log2 fold change” value is 0.244. As for RRIRSRPPRLPRPRPRPDMSPRP, the “shrunken log2 fold change” value was -0.0189.

Turning to RRIRFRPPRLPRPRPRPVWVPRP, the “shrunken log2 fold change” value was found to be 0.0313. With RRIRKRPPRLPRPRPRPVCCPRP, the “shrunken log2 fold change” value stood at 0.517. Consider RRIRVRPPRLPRPRPRPCDDPRP, for which the “shrunken log2 fold change” value is -0.0369. With RRIRTRPPRLPRPRPRPFDLPRP the figure was -0.29. In the case of RRIRGRPPRLPRPRPRPDREPRP it was 0.34; in that of RRIRNRPPRLPRPRPRPGALPRP, 0.0726; in that of RRIRRRPPRLPRPRPRPRDDPRP, 0.14. As to RRIRRRPPRLPRPRPRPNHIPRP, the “shrunken log2 fold change” value was -0.502. With RRIRTRPPRLPRPRPRPRCNPRP the figure was -0.36. Turning to RRIRARPPRLPRPRPRPGRVPRP, the “shrunken log2 fold change” value was 0.612. With RRIRCRPPRLPRPRPRPPFGPRP the figure was 0.213; with RRIRRRPPRLPRPRPRPMAMPRP, -0.011; with RRIRGRPPRLPRPRPRPWINPRP, -0.137. In the case of RRIRDRPPRLPRPRPRPYHQPRP it was -0.0205. In the case of RRIRWRPPRLPRPRPRPIWMPRP it was -0.000467; in that of RRIRIRPPRLPRPRPRPHSKPRP, -0.677. In the case of RRIRNRPPRLPRPRPRPTVPPRP, the “shrunken log2 fold change” value is -0.233.

For the sequence RRIRQRPPRLPRPRPRPLMMPRP, the “shrunken log2 fold change” value was -0.0501. For RRIRERPPRLPRPRPRPGYDPRP, the “shrunken log2 fold change” value is -0.191.

As for RRIRARPPRLPRPRPRPEFHPRP, the “shrunken log2 fold change” value was 0.847. For RRIRIRPPRLPRPRPRPCRKPRP, the “shrunken log2 fold change” value was -0.0747.

RRIRARPPRLPRPRPRPGHTPRP: the “shrunken log2 fold change” value stood at 0.129.

As to RRIRMRPPRLPRPRPRPVQNPRP, the “shrunken log2 fold change” value turned out to be 0.0136. Regarding RRIRYRPPRLPRPRPRPFRLPRP, the “shrunken log2 fold change” value is -0.0183.

As for RRIRWRPPRLPRPRPRPNWFPRP, the “shrunken log2 fold change” value was found to be 0.156. Regarding RRIRKRPPRLPRPRPRPHLIPRP, the “shrunken log2 fold change” value was found to be 0.108. With RRIRDRPPRLPRPRPRPPDLPRP the figure was 0.201.

With RRIRERPPRLPRPRPRPAIAPRP, the “shrunken log2 fold change” value came out at 0.0488. With RRIRWRPPRLPRPRPRPFIPPRP the figure was -1.15; with RRIRCRPPRLPRPRPRPTMVPRP, -0.33.

Consider RRIRWRPPRLPRPRPRPWTFPRP, for which the “shrunken log2 fold change” value was -0.146.

On to RRIRNRPPRLPRPRPRPLYQPRP, for which the “shrunken log2 fold change” value was -0.357. With RRIRKRPPRLPRPRPRPACHPRP the figure was 0.211; with RRIRYRPPRLPRPRPRPLQCPRP, -0.344; with RRIRRRPPRLPRPRPRPYKVPRP, -0.193. As for RRIRMRPPRLPRPRPRPHPVPRP, the “shrunken log2 fold change” value was 0.0384.

In the case of RRIRWRPPRLPRPRPRPSQVPRP, the “shrunken log2 fold change” value is -0.0348. Take RRIRIRPPRLPRPRPRPASEPRP: the “shrunken log2 fold change” value was 0.149.

On to RRIRARPPRLPRPRPRPHHDPRP, for which the “shrunken log2 fold change” value was -0.0472. In the case of RRIRYRPPRLPRPRPRPWAMPRP, the “shrunken log2 fold change” value was -0.00232.

For the sequence RRIRNRPPRLPRPRPRPMNGPRP, the “shrunken log2 fold change” value was 0.015. In the case of RRIRGRPPRLPRPRPRPHSYPRP it was 0.231; in that of RRIRLRPPRLPRPRPRPVPKPRP, 0.282; in that of RRIRWRPPRLPRPRPRPQSVPRP, 0.119.
